Experimental data: the DeepSol protein solubility set

Assay: soluble on expression in E. coli; label from the status in PepcDB or PDB records

Soluble on expression in E. coli, not soluble:
MGSDKIHHHHHHMWEVRYLNAELLDLKLWGEGCRLYQIRQMGDDEICLIQTDDTPQESLCERWQVVYAERGAVQQLLFEFTDEAEACEFMYREIKRIKHPHLVGLFPTDAEAEQFCQVLTQLEIQFSHDPQGRVRVYDQEIFTVERHFGCQLPLRKWLSVPERIHVTLARLRKFDPYNCYAQITTNPPIGSEAKLSELEAEHRIKLPEVYRTFLLEVCNGGNWERLGHYWSAEEVMANNSAQLWNQPLPEFLAKLKAAKSGDWLTNPGNRQYPGLLRIVDWDNPVRDLFLTQEGYEVEIQGDWIRFCEFSPEQWLKDFLDDIQYGLFPIEGLLAFLRSGELIRDYPYFHTVNFARLLAETIGLNIDPELTNEQVKMSDEIDYKINQWRIENMGKMRYNFGFNAEQAEVRRQRILERLEYLYQLYS
MGSDKIHHHHHHMWFKNLMTYRLTKPLDWDLAQLQTQLEDCQFHPCGTQDQSKFGWSAPLRGSDLLYFSVGKQILLIAKKEEKILPANVVKRELDDRIESLEQKENRKLKKVEKQTLKDDVVMNLLPRAFSKNQHTALWIDTENNLIHIDAASSKRAEDALALLRKSLGSLPVVPLAFANEPSTILTNWILQDNLPHWLLALEEAELRGSQEDSVIRCKKQPLENEEILALLQDGKKVVSKLALEWEDTLTFVFNEDCTIKRLKFADTVREKNDDILKEDFAQRFDADFVLMTGILAKLTENLLDEFGGEKARL
MGSDKIHHHHHHMYDLIGVGIGPMNLGLSALAHPTPLRTLFFDESEQFSWHPGMMIKDSMMQTSFISDLVTLADPTSPFTYLNYLRSLNRLHTFYFYEKLLISRQEYNAYLKWVSTQLDDLHFSTRVIDIQDTGDSYEVLVEEVATGKRTTYETRNVVLGTGSKPSIPGSFDKNVIHNTQYVMEKEAILQQDKVSIVGSGQSAAEIFLDLLTSDRPETFELEWISRSTIFETLETGKLGEEIFSPSYVRYFNSLPLATRQEAVAKFTRSQNGISPETLQAIYEHLYDLSPEEQQRVKIRANLEVDQISYDSDFTITMRHTELNEQRTSKTGAVVAATGFVPSLPRFINRLDIEFEGEQQAWKVDANYRISRTVSANHHLYATTNLELSHGPAADNLGMSVSRNQLILNDVAGKELYPVEQHATFTTFD
MGSDKIHHHHHHMYLIGSDIGTQGTKSVIVNEKGEVLAEAFREYEVITPKPNWAEQWPDVWVKAVFETVKEVVEKSGVSKKEIAGIAISGLYGGSGIPVDRNMQPLRPCLIWMDRRAVKETEWVKQNVPKEKLFEITGNYVDSYFGFTKIMWIRNNEPEIWEKIYKFITPKDYVIYQMTGEVVIDYSSAGNLGGVFDIRKLTWSKEMCDVLGIPIEFLPERIVKSSDVVGRVTKEASELCGLLEGTPVVAGGIDAPVAQLSAGALEEGEHVAMVGTSTCWGTVHDGSKLAFGLVNYPYVVYDTERIYTFGGSATTGALARWFKEQFGESETIVGERTGISPYQLFDKEVANIPAGSEGIIVLPYFMGERSPIWDPTARGVFFGVTLYHKRAHLYRALMEGGAYALRHNMEEGLKAGLKLNDECWIVGGVSKSSVWVKIFADVTGFKMRQVASLVEAPYGDAFLAGLGTGVIDKPERIKEWVKYRDPVEPDPENKKIYDRYYEIYRELYERTKDLMARL
MGSDKIHHHHHHMYLKELSMMPGVSGDEGKVRDFIKSKIEGLVDNLYTDVLGNLIALKRGRDSSKKLLVSAHMDEVGFVVSKIEKDGKVSFLPVGGVDPRILPGKVVQVKNLKGVIGYRPIHLQRDEENTPPRFENLRIDFGFSSADEAKKYVSIGDYVSFVSDYIEKNGRAVGKAFDDRAGCSVLIDVLESGVSPAYDTYFVFTVQEETGLRGSAVVVEQLKPTCAIVVETTTAGDNPELEERKWATHLGDGPAITFYHRGYVIPKEIFQTIVDTAKNNDIPFQMKRRTAGGTDAGRYARTAYGVPAGVISTPARYIHSPNSIIDLNDYENTKKLIKVLVEEGKIVEVVS
MGSDKIHHHHHHMYPQRIEPQPGQESVWDYPRPPRLEDTSKHIQIIFNGVIIADTQNAKRVLETSHPPSYYIPPGDIKMEHLIPTPQSSFCEWKGLAGYYTIRVGDKEVQNAAWFYPNPTTAFASLRDHVAFYAHLMDACYVDGDQVEPQPGNFYGGWITKDVVGPFKGIPGSWGW
MGSDKIHHHHHHMYQPISIVNIYYQGFGDKRLIGKLTMDGRRPTFGYDAAWLADGLELSPIEMPLRSAPYYGSHASSHYLCGLLSDSLPDGWGMLLMDRFFRRTISNTAPVNILDRLAYIGDSAMGALSFEPQHDLSANVIDMSELTLAKLAAANQTILSGQDSDILAELIVIGGSPQGARPKALVLYDESSDFITTDTASKNPSATSWLIKFPAQSEHKSVCLLEALYADMAKKAGLNMPMHHYFDIDSEYAAFGVERFDRMGNQRVHIHTLAGLLDIDFRIPSLDYLQYLRCVRMLTQSQLAVESAFKHAVFNVIFNNKDDHSKNFSFMMNEAGSWSLSPVYDLAYNSGMNGYHQMDVAGEARYPTLSHLLKLAKLADIKQNKAQAIIDQVASVAEDFLTVINDHDIEKELSNRVIQDIKANINRMVS
MGSDKIHHHHHHMYRVIELGHVISAPFAGEILRHLGFEVIKIEPLLGDPSRKDDVLVDSMFVFNNRGKRSISVDLRKEKGKEVFLRLVRNSHVLIENLSPHVMDRLGLSDDVIFSTNPSLVYCSIKGYPKGKYENLPAFGTIIEAESGIMDANGKARLPASITDMNASTYCVITILWALLMKKPGHYRVSIIQANTVWLGYYLIAYQKYGKLFEAGKDELPFWAPYELFKSSEEKEFYLAVNDNEKFTKLCKALGLEDLLADERFKTNADRVRNRKILHEKLQQKFSSMKLEEIMNILRYNDIPVGKLNNLKDLISNELVEWDTFRNVQVPKLPLPGSLNSQHVPNVGEDTLYILKELGYSENEIESMIKENVINYNK
MGSDKIHHHHHHMYSLAVNNGTLSDEQISGLVHQALADRQLDGQRILILIPDGTRTAPIPQIFRLLHQELGKRVPALDFLIALGTHNPMSEEQINHLVGVTPKERETTFKKVRIFNHLWNEPDTFISCGVISADEIAEISRGMLHQSVEVRVNKLVTQYDLIMICGPVFPHEVVGFSGGNKYFFPGIGGQEVIDISHWLGALITSYEIIGTSGITPVRRLINRAANLISTPKLCLAMVVAPKTNQLAGLYIDKPESAWEAAAKLSDKLHITYVDRSFKQVLSVMPEMYDDIWTAAKGMYKLEPVVADGGEVIIYAPHITEFSYTHGEILSQIGYHVRDYFLKQWDKFQAYPGGVLAHSTHLKGMGTFDFTEGEKARIRVTLATGISAERCAAHNLNYRDPATIRPTEWANREDEGILLVPKSGEILYRLIQA
MGSDKIHHHHHHMYSTTQHQSPETVVTVSSLGKAYKIYNSKRDRAKQLIFQNRRKYFQEHWALRNISFDLRRGESIGIVGKNGSGKSTLLQLICGTLKPSQGEVIVNGKIAALLELGSGFNPEFSGRENVYLNASILGLNKQEIQERLDDILAFADIGNYVDQPVRTYSSGMVVRLAFSVIAHVDADILIVDEALSVGDAYFTQKCMRFIQRFQEKGSLLFVSHDANAILSLCNRALLINQGELKRVGKPKEVIEDYTRDLQKRNLADQNNKINRPERMKEQENTAHMKRQSGVQYTQKNIENEIMKWSDYRCKLINSSNLANTIVITRFDETLTTRETYGGEKAEITNVELENIETNKTIQNIKGGEIVRLRLKFEARTAIGRPIIGFILKNSKGLTILGDNTNNSISENNDFNAFEGDKVTTDFVFTVPMLQQGEYMISVSVADGCITEHEILHWMNDALLLRSQCTSIAAGLAGVPMHSISIEIEK
MGSDKIHHHHHHMYVGTQVAARDDEDFKVWAQLGVKNISADPPGKPASWVLDDFERLRDKVESFGLVLDMVQLPLPSRPIEQASYPDILLAGPERDRQIDAVCTMIENIAKAGIPAAKYNLNLIGIPRTEMELGRGGSLNEAWRWDKADHNADPGLAGVLSEDENWERIDYFLERVVPVAASNKVRLACHPHDPYTPPGYKGVTRVLGTIEGLKKFVQMRENPYHGLNFCQGSIGEMLDNPREEIDDIIRWFGSRDKIFNVHFRNISGGKLSFMETFPDEGDMDMVRSLKLYHELGYRYMIMPDHVPTIAGRDPVGVAFGFCYGYIAALIEALDNKHL
MGSDKIHHHHHHMYYISLNVKRRKLNKDNNYNEFLTDPIYSRLIENVEKLKDKVFHLSKIVNLQAYMEGFTFYTSSNYRSTPIDVIPRIITSELFFKISNYLVARSYVLNKFIREVYQEGSNPIPDWIVKTTPYFRPEMMGFSPPKDIYIHVYGADIVRVNGVPFILEDNLRIPSGISYSYKAFEYVDRFLPELKEGYDNRVLQINGLDYLYDILRYVSGNKDPIIVILTDGNYNSAYFEHKFISEKLGIILAEPNDIYVKDKEVVVRTVDEGEVHVDVIYRRIEDLDYLTPGLMKAYLRGWVTLANAPGTGVADDKATFVWIPYLAEKYGIKLENVIQPYTICLYEKENLEKVITQPTRYVIKKREGYGGIGLAIVKDDNINVLKEIYKEYENFIAQEVLDFDTVISVVNDSFYETYADMRIFTYYDKVASAVLSRVGIMGSRITNNSSGGMVKPLWIIK
MGSDKIHHHHHHNDDDDKYYYPTNFENLSLPNDTIIAKGEDLTLKPTLNLINPKIYSWKIDGKEVSNEVNYTFSTSVGGKHEIIFEAQDSKGNTDKAQITVDVFAYYGGFYVINEGWAGHDPASVNYYKDGKWNFNIVESLGQTGTVGVIQDSYMYIVAKDAPYLTQIELANFNITKQLSTEIEEQLDYGQANSFCTINETTGILTASRGAYKINLNPLSIGNMLPQLNSESANGNGCKDILKSGDYVFVNNMDTIKIYKSSDLSFVKKLTALMKTGFAQTKDGNIWAANGQSLIKIDPKTLDETTVELPDNINVFYNQWAYTPTGLCASTTENALYIVNTTVVPGAYGDSYYGKNIYKYNTESKIAQEFFKAPSKIQSIYGAGIQVNPQNGDVYLIYTEDGYGTHYLNTNIYVADGQSGTQKQIIDYTGKYWFPSSIVFK
MGSDKIHHHHHHNEMTEMNPDTNRTIGLDVYTEVQTRGTETTTSTLKANAGFGIFAYQTSSAGWNSEKGNTTPNFMYNEHATWTSDSWGYTNLRFWPIDDKKITFFAYAPYESKPEVGTDQKITLSGQNAKGAPTITFEVKTSNNWKDMIDLVTDCHTAIQDQTNESNKGTVQFKFSHVLTQIANIKVKPDVNLGTDTKIFVTGLKLDPGSTTLYNKAVYKFDNDTWEAISPDASYFSTEQDLSDFLNKTTTDQWGYNKSSINVSDDQNATALFSDTEALYFIPVNNKNGTTNAGDLKLKINYDIVTKVTDTSNLTSTITNKEVSLPKNTFKKGTKHTYVLTIKMNAIKITVEDNMEGWTDDSDSDINVEK
MGSDKIHHHHHHNTPREVTLHFLRTAGHPLTRWALQRQPPSPKQLEEEFLKIPSNFVSPEDLDIPGHASKDRYKTILPNPQSRVCLGRAQSQEDGDYINANYIRGYDGKEKVYIATQGPMPNTVSDFWEMVWQEEVSLIVMLTQLREGKEKCVHYWPTEEETYGPFQIRIQDMKECPEYTVRQLTIQYQEERRSVKHILFSAWPDHQTPESAGPLLRLVAEVEESPETAAHPGPIVVHCSAGIGRTGCFIATRIGCQQLKARGEVDILGIVCQLRLDRGGMIQTAEQYQFLHHTLALYAGQLPEEPSP
